Source: the Human Domainome abundance scans (Beltran et al. 2025)
± gives the uncertainty stated by the source.

B1: Protein C-ets-1, residues 55 to 135; numbered along this chain, P14921 (parent)
chain: GFTKEQQRLGIPKDPRQWTETHVRDWVMWAVNEFSLKGVDFQKFCMNGAALCALGKDCFLELAPDFVGDILWEHLEILQKE

Variants of: B1
Assay: abundance fitness (aPCA) (normalised: wild type 0, dead -1); higher = more abundant; growth selection in yeast, the domain comes from the species named
Settings: Homo sapiens

Variant | abundance fitness
G48K | -0.911 ± 0.35
G48S | -0.911 ± 0.066
G48N | -0.758 ± 0.2
G48Q | -0.931 ± 0.14
G48P | -1.02 ± 0.11
G48V | -0.805 ± 0.073
L60H | -0.052 ± 0.069
L60C | -0.091 ± 0.068
L60N | -0.117 ± 0.093
L60W | -0.43 ± 0.057
L60T | 0.001 ± 0.057
L60Y | -0.058 ± 0.073
L60K | 0.043 ± 0.077
L60M | -0.067 ± 0.059
L60F | -0.087 ± 0.066
L60R | -0.042 ± 0.033
L60P | -0.628 ± 0.063
L60Q | 0.027 ± 0.067
L60G | -0.1 ± 0.029
L60E | -0.113 ± 0.061
L60D | -0.23 ± 0.06
L60A | -0.009 ± 0.034
A49T | -0.048 ± 0.028
A49E | 0.02 ± 0.03

Variant | abundance fitness
A49L | -0.132 ± 0.025
A49H | -0.058 ± 0.048
A49Q | -0.011 ± 0.037
A49V | -0.162 ± 0.023
A49N | -0.139 ± 0.053
A49G | -0.126 ± 0.022
A49C | -0.372 ± 0.036
A49R | -0.013 ± 0.02
A49D | -0.04 ± 0.032
A49K | 0.085 ± 0.05
A49Y | -0.262 ± 0.043
A49M | -0.055 ± 0.032
A49P | -0.137 ± 0.028
A49W | -0.3 ± 0.032
A49F | -0.339 ± 0.039
A49I | -0.237 ± 0.04
F59W | -0.318 ± 0.039
F59P | -0.984 ± 0.078
F59I | -0.414 ± 0.064
F59S | -0.918 ± 0.063
F59E | -0.944 ± 0.1
F59V | -0.467 ± 0.031
F59A | -0.928 ± 0.054
F59Q | -0.836 ± 0.08

Variant | abundance fitness
F59H | -0.953 ± 0.14
F59D | -0.782 ± 0.078
F59Y | -0.869 ± 0.17
F59L | -0.252 ± 0.032
F59N | -0.494 ± 0.084
F59G | -0.95 ± 0.054
F59M | -0.239 ± 0.048
F59R | -0.496 ± 0.038
F59C | -0.65 ± 0.083
F59K | -0.882 ± 0.097
F59T | -0.963 ± 0.096
G68D | -0.792 ± 0.12
G68C | -0.156 ± 0.094
G68E | -0.994 ± 0.12
G68A | -0.116 ± 0.032
G68K | -0.678 ± 0.099
G68H | -0.541 ± 0.15
P64F | -0.896 ± 0.22
P64G | 0.032 ± 0.041
P64Y | -0.728 ± 0.2
P64K | -0.6 ± 0.074
P64H | -0.34 ± 0.091
P64S | -0.202 ± 0.045
P64W | -0.938 ± 0.12

Variant | abundance fitness
P64L | -0.861 ± 0.082
P64V | -0.836 ± 0.085
P64I | -0.891 ± 0.22
P64T | -0.194 ± 0.059
P64N | -0.296 ± 0.14
P64M | -1.06 ± 0.2
P64E | -0.239 ± 0.057
P64Q | -0.288 ± 0.065
V67A | -0.062 ± 0.054
V67E | 0.081 ± 0.094
V67D | -0.138 ± 0.096
V67Y | -0.319 ± 0.13
V67K | -0.305 ± 0.23
V67C | -0.04 ± 0.095
V67S | -0.002 ± 0.066
V67T | -0.057 ± 0.086
V67W | -0.414 ± 0.096
V67F | -0.267 ± 0.16
V67I | -0.159 ± 0.1
V67G | -0.018 ± 0.038
V67H | -0.284 ± 0.14
V67N | -0.242 ± 0.11
V67L | -0.256 ± 0.061
V67Q | -0.069 ± 0.051

Variant | abundance fitness
V67R | -0.167 ± 0.048
D65N | 0.084 ± 0.074
D65K | -0.01 ± 0.065
D65S | 0.006 ± 0.039
D65T | 0.027 ± 0.09
D65M | -0.019 ± 0.075
D65W | -0.311 ± 0.058
D65L | -0.09 ± 0.033
D65A | 0.004 ± 0.039
D65P | 0.076 ± 0.039
D65H | -0.09 ± 0.076
D65F | -0.221 ± 0.08
D65C | -0.057 ± 0.032
D65I | -0.008 ± 0.11
D65V | -0.043 ± 0.041
D65Y | -0.04 ± 0.075
D65G | 0.024 ± 0.027
D65E | 0.01 ± 0.055
K56R | -0.004 ± 0.034
K56F | -0.865 ± 0.18
K56I | -0.702 ± 0.11
K56G | -0.851 ± 0.076
K56M | -0.357 ± 0.037
K56V | -0.558 ± 0.046

Variant | abundance fitness
K56S | -0.7 ± 0.055
K56L | -0.635 ± 0.054
K56T | -0.878 ± 0.098
K56P | -0.493 ± 0.043
K56D | -0.979 ± 0.22
K56H | -0.033 ± 0.082
K56W | -0.729 ± 0.084
K56A | -0.482 ± 0.04
K56C | -0.814 ± 0.11
K56Y | -0.134 ± 0.065
D57W | -0.464 ± 0.06
D57R | -0.063 ± 0.034
D57K | 0.017 ± 0.066
D57P | -0.109 ± 0.033
D57I | -0.185 ± 0.09
D57M | -0.158 ± 0.05
D57E | 0.001 ± 0.045
D57G | -0.083 ± 0.028
D57Y | -0.326 ± 0.1
D57N | -0.02 ± 0.063
D57Q | -0.073 ± 0.045
D57S | -0.027 ± 0.03
D57C | -0.106 ± 0.065
D57T | -0.058 ± 0.039

Variant | abundance fitness
D57V | -0.097 ± 0.03
D57F | -0.303 ± 0.065
D57L | -0.216 ± 0.033
D57H | -0.049 ± 0.058
D57A | -0.049 ± 0.029
L54S | -0.445 ± 0.032
L54Y | -0.292 ± 0.033
L54G | -0.229 ± 0.027
L54H | -0.598 ± 0.078
L54D | -0.791 ± 0.092
L54I | -0.078 ± 0.064
L54A | -0.338 ± 0.032
L54V | -0.254 ± 0.032
L54R | -0.238 ± 0.028
L54Q | -0.299 ± 0.056
L54M | -0.022 ± 0.05
L54W | -0.582 ± 0.051
L54C | -0.666 ± 0.079
L54K | -0.102 ± 0.05
L54E | -0.614 ± 0.051
L54T | -0.33 ± 0.042
L54N | -0.302 ± 0.059
L54P | -0.775 ± 0.072
